Data on 5 molecules can be found in patent US20160009782A1 (Stanford University, published 2016).

Test [1] addresses T1, oligomerized synthetic human Aβ1-42 peptide (oligo-Aβ42) (human, N-terminal biotin (biotinylated peptide used in the cell, neuron and streptavidin pull-down assays)).
T1 construct: Soluble oligomer mixture, mainly high-n oligomers; About 10-20% stays as monomer or low-n oligomer; Concentrations are monomer equivalents of total peptide; this is probably a misprint, since the peptide used was bought as human Aβ1-42; Both biotinylated and non-biotinylated peptides were obtained; also called Aβ42 oligomers; oligomerized Aβ42
Nature of the test: Aβ42 oligomers pulled down with purified Fc fusion protein, Western blot for Aβ, normalised band intensity (n=3). An excerpt:
Data are mean±SEM (n=5). […] Mean±SEM. […] Bottom: bar graphs of average band intensities±SEM from experiments such as that shown in FIG. 10C (n=3; see also FIG. 2H). […] Top, right: Western blot with anti-Aβ antibodies specific for oligomeric forms (OMAB; see FIG. 10D); Bottom, left: quantification of Aβ42 binding. Normalized average band intensities±SEM (n=3).
Background: In western blotting, separated proteins are transferred to a membrane and probed.

Test [2] addresses T1, oligomerized synthetic human Aβ1-42 …. The test is described as follows: synthetic Aβ42 oligomers immunoprecipitated with PirB-Fc proteins, Western blot α-Aβ (6E10), fully reduced.
Test [3] has the same target. The test is described as follows: oligomerized Aβ42 immunoprecipitated with soluble Fc fusion protein, Western blot α-Aβ (4G8) and α-oligo Aβ (OMAB). An excerpt:
Mean±SEM. […] Bottom: bar graphs of average band intensities±SEM from experiments such as that shown in FIG. 10C (n=3; see also FIG. 2H). […] Top, right: Western blot with anti-Aβ antibodies specific for oligomeric forms (OMAB; see FIG. 10D); Bottom, left: quantification of Aβ42 binding. Normalized average band intensities±SEM (n=3).
The Aβ signals were quantified as described above.

Test [4] has the same target. Nature of the test: oligo-Aβ42 on transfected HEK293 cells, fluorescence, control-vector cells subtracted. The source says:
Bottom: bar graphs of average band intensities±SEM from experiments such as that shown in FIG. 10C (n=3; see also FIG. 2H). […] Top, right: Western blot with anti-Aβ antibodies specific for oligomeric forms (OMAB; see FIG. 10D); Bottom, left: quantification of Aβ42 binding. Normalized average band intensities±SEM (n=3).
(§1) The bound Aβ peptides were visualized with streptavidin-Alexa fluorophore conjugates (Alexa 488, 598 or 647; wavelength choice depending on experiments) (J. Lauren, et al. (2009) “Cellular prion protein mediates impairment of synaptic plasticity by amyloid-beta oligomers.” Nature 457, 1128). […] Fluorescent images were captured with fixed illumination and exposure time using a Nikon 20× objective of numerical aperture 0.75, and then fluorescence intensity was quantified using ImageJ software (NIH). In each experiment, values from control vector transfected cells were used as background, and subtracted from those of experimental cells.

For test [5] the target is unchanged. The test is described as follows: Aβ42 oligomers on transfected HEK293 cells, fluorescence staining.
Text: as §1

B1: LilrB2 (D3D4)-Fc, LilrB2 residues 219-458 fused to human IgG1-Fc (Fc fusion)
chain: PGVSKKPSLSVQPGPVVAPGESLTLQCVSDVGYDRFVLYKEGERDLRQLPGRQPQAGLSQANFTLGPVSRSYGGQYRCYGAHNLSSECSAPSDPLDILITGQIRGTPFISVQPGPTVASGENVTLLCQSWRQFHTFLLTKAGAADAPLRLRSIHEYPKYQAEFPMSPVTSAHAGTYRCYGSLNSDPYLLSHPSEPLELVVSGPSMGSSPPPTGPISTPAGPEDQPLTPTGSDPQSGLGRH
notes: not shown: human IgG1-Fc from the pFUSE-hIgG1e3-Fc2 vector (InvivoGen); exact limits, linker and any engineered changes are not sta
Regarding B1, in test [1], the binding result was “no binding”.

B2: D3D6 (PirB-Fc) (Fc fusion)
chain: GNLQKPTIKAEPGSVITSKRAMTIWCQGNLDAEVYFLHNEKSQKTQSTQTLQEPGNKGKFFIPSVTLQHAGQYRCYCYGSAGWSQPSDTLELVVTGIYEYYEPRLSVLPSPVVTAGGNMTLHCASDFPYDKFILTKEDKKFGNSLDTEHISSSGQYRALFIIGPTTPTHTGAFRCYGYYKNAPQLWSVPSALQQILISGLSKKPSLLTHQGHILDPGMTLTLQCFSDINYDRFALHKVGGADIMQHSSQQTDTGFSVANFTLGYVSSSTGGQYRCYGAHNLSSEWSASSEPLDILITGQLPLTPSLSVQPNHTVHSGETVSLLCWSMDSVDTFILSKEGSAQQPLRLKSKSHDQQSQAEFSMSAVTSHLSGTYRCYGAQDSSFYLLSSASAPVELTVSGPIETSTPPPTMSMPLGGLHMYLKA
modifications: Fc-mediated homodimer; one chain given
notes: not in the list MOLECULES; also called PirB (D3D6)-Fc; PirB:221-643 (D3D6); not shown: human IgG1-Fc of vector pFUSE-hIgG1e3-Fc2 (InvivoGen) and the cloning-junction residues
In the case of B2, the binding result in test [2] is given as “no binding”.

B3: PirB (D5D6)-Fc, PirB residues 419-643 fused to human IgG1-Fc (Fc fusion)
chain: GLSKKPSLLTHQGHILDPGMTLTLQCFSDINYDRFALHKVGGADIMQHSSQQTDTGFSVANFTLGYVSSSTGGQYRCYGAHNLSSEWSASSEPLDILITGQLPLTPSLSVQPNHTVHSGETVSLLCWSMDSVDTFILSKEGSAQQPLRLKSKSHDQQSQAEFSMSAVTSHLSGTYRCYGAQDSSFYLLSSASAPVELTVSGPIETSTPPPTMSMPLGGLHMYLKA
notes: Used as the negative control in the pull-down assays; not shown: human IgG1-Fc from the pFUSE-hIgG1e3-Fc2 vector (InvivoGen); exact limits, linker and any engineered changes are not sta
With B3, the binding result in test [3] is listed as “no binding”.

B4: human killer immune receptor Kir (3DL1) expressed in HEK293 cells (receptor, UniProt P43629 22-444, looked up)
chain: HMGGQDKPFLSAWPSAVVPRGGHVTLRCHYRHRFNNFMLYKEDRIHIPIFHGRIFQESFNMSPVTTAHAGNYTCRGSHPHSPTGWSAPSNPVVIMVTGNHRKPSLLAHPGPLVKSGERVILQCWSDIMFEHFFLHKEGISKDPSRLVGQIHDGVSKANFSIGPMMLALAGTYRCYGSVTHTPYQLSAPSDPLDIVVTGPYEKPSLSAQPGPKVQAGESVTLSCSSRSSYDMYHLSREGGAHERRLPAVRKVNRTFQADFPLGPATHGGTYRCFGSFRHSPYEWSDPSDPLLVSVTGNPSSSWPSPTEPSSKSGNPRHLHILIGTSVVIILFILLLFFLLHLWCSNKKNAAVMDQEPAGNRTANSEDSDEQDPEEVTYAQLDHCVFTQRKITRPSQRPKTPPTDTILYTELPNAKPRSKVVSCP
notes: whole, on cells
For the molecule B4, the binding result in test [4] is “no binding (tested: 200 nM)”.

B5: human LilrB1 expressed in HEK293 cells (receptor, UniProt Q8NHL6 24-650, looked up)
chain: GHLPKPTLWAEPGSVITQGSPVTLRCQGGQETQEYRLYREKKTALWITRIPQELVKKGQFPIPSITWEHAGRYRCYYGSDTAGRSESSDPLELVVTGAYIKPTLSAQPSPVVNSGGNVILQCDSQVAFDGFSLCKEGEDEHPQCLNSQPHARGSSRAIFSVGPVSPSRRWWYRCYAYDSNSPYEWSLPSDLLELLVLGVSKKPSLSVQPGPIVAPEETLTLQCGSDAGYNRFVLYKDGERDFLQLAGAQPQAGLSQANFTLGPVSRSYGGQYRCYGAHNLSSEWSAPSDPLDILIAGQFYDRVSLSVQPGPTVASGENVTLLCQSQGWMQTFLLTKEGAADDPWRLRSTYQSQKYQAEFPMGPVTSAHAGTYRCYGSQSSKPYLLTHPSDPLELVVSGPSGGPSSPTTGPTSTSGPEDQPLTPTGSDPQSGLGRHLGVVIGILVAVILLLLLLLLLFLILRHRRQGKHWTSTQRKADFQHPAGAVGPEPTDRGLQWRSSPAADAQEENLYAAVKHTQPEDGVEMDTRSPHDEDPQAVTYAEVKHSRPRREMASPPSPLSGEFLDTKDRQAEEDRQMDTEAAASEAPQDVTYAQLHSLTLRREATEPPPSQEGPSPAVPSIYATLAIH
notes: whole, on cells; not shown: C-terminal Myc tag
In the case of B5, the binding result in test [5] is reported as “no binding (tested: 200 nM)”.
